Data from patent publication US20210292396A1.

Key:
Assay in all cases: cell-based or functional assay
[1] = target: HIV Env of isolate BJOX010000.06.2 (HIV)
[2] = target: Env of HIV isolate 247-23 (clade D) (HIV)
[3] = target: Env of HIV isolate ZM55.28a (clade C) (HIV)
[4] = target: HIV Env of isolate 3817.v2.c59 (HIV)
[5] = target: Env of HIV isolate ZM197.7 (clade C) (HIV)
[6] = target: HIV Env of isolate X1193.c1 (HIV)
[7] = target: HIV Env of isolate 0330.v4.c3 (HIV)
[8] = target: HIV Env of isolate X2278.C2.B6 (HIV)
[9] = target: Env of HIV isolate ZM135.10a (clade C) (HIV)
[10] = target: Env of HIV isolate CAP45.G3 (clade C) (HIV)
[11] = target: Env of HIV isolate CAP210.E8 (clade C) (HIV)
[12] = target: HIV Env of isolate Q23.17 (HIV)
[13] = target: Env of HIV isolate 5768.04 (clade B) (HIV)
[14] = target: Env of HIV isolate T266-60 (clade AG) (HIV)
[15] = target: Env of HIV isolate 3589.v1.c4 (clade AC) (HIV)
[16] = target: Env of HIV isolate 398-F1.F6.20 (clade A) (HIV)
[17] = target: HIV Env of isolate BJOX002000.03.2 (HIV)
[18] = target: HIV Env of isolate SF162.LS (HIV)
[19] = target: Env of HIV isolate C3347.c11 (clade AE) (HIV)
[20] = target: HIV Env of isolate CNE21 (HIV)
[21] = target: Env of HIV isolate T255-34 (clade AG) (HIV)
[22] = target: Env of HIV isolate 16055-2.3 (clade C) (HIV)
[23] = target: HIV Env of isolate 6535.3 (HIV)
[24] = target: HIV Env of isolate 3337.v2.c6 (HIV)
[25] = target: Env of HIV isolate DU151.02 (clade C) (HIV)
[26] = target: Env of HIV isolate R1166.C1 (clade AE) (HIV)
[27] = target: HIV Env of isolate X1254.c3 (HIV)
[28] = target: Env of HIV isolate 0077.v1.c16 (clade C) (HIV)
[29] = target: HIV Env of isolate SC422.8 (HIV)
[30] = target: HIV Env of isolate ZM215.8 (HIV)
[31] = target: HIV Env of isolate Q461.e2 (HIV)
[32] = target: HIV Env of isolate Q842.d12 (HIV)
[33] = target: HIV Env of isolate X1632.S2.B10 (HIV)
[34] = target: Env of HIV isolate BS208.B1 (clade A) (HIV)
[35] = target: Env of HIV isolate DU123.06 (clade C) (HIV)
[36] = target: Env of HIV isolate 3326.v4.c3 (clade CD) (HIV)
[37] = target: Env of HIV isolate Q769.d22 (clade A) (HIV)
[38] = target: HIV Env of isolate 89.6.DG (HIV)
[39] = target: HIV Env of isolate X2131.C1.B5 (HIV)
[40] = target: HIV Env of isolate 3168.v4.c10 (HIV)
[41] = target: HIV Env of isolate 246-F3.C10.2 (HIV)
[42] = target: HIV Env of isolate BJOX009000.02.4 (HIV)
[43] = target: HIV Env of isolate 263-8 (HIV)
[44] = target: Env of HIV isolate MN.3 (clade B) (HIV)
[45] = target: HIV Env of isolate CAAN.A2 (HIV)
[46] = target: HIV Env of isolate CNE58 (HIV)
[47] = target: Env of HIV isolate P0402.c2.11 (clade G) (HIV)
[48] = target: HIV Env of isolate CH070.1 (HIV)
[49] = target: Env of HIV isolate 6545.v4.c1 (clade AC) (HIV)
[50] = target: Env of HIV isolate CNE10 (clade B) (HIV)
[51] = target: HIV Env of isolate 286.36 (HIV)
[52] = target: Env of HIV isolate CH038.12 (clade BC) (HIV)
[53] = target: Env of HIV isolate YU2.DG (clade B) (HIV)

Substance: PGT121 (antibody)
- IC80 [1]: > 50 µg/mL
- IC50, pseudovirus neutralization [2]: > 50 µg/mL
- IC50, pseudovirus neutralization [3]: 0.0807 µg/mL
- IC80, pseudovirus neutralization [4]: > 50 µg/mL
- IC50, pseudovirus neutralization [5]: > 50 µg/mL
- IC80, pseudovirus neutralization [6]: 0.147 µg/mL
- IC80 [7]: 0.211 µg/mL
- IC80 [8]: 0.072 µg/mL
- IC50, pseudovirus neutralization [9]: 0.748 µg/mL
- IC50, pseudovirus neutralization [10]: 0.866 µg/mL
- IC50, pseudovirus neutralization [11]: 4.28 µg/mL
- IC80 [12]: 0.0267 µg/mL
- IC50, pseudovirus neutralization [13]: 0.118 µg/mL
- IC50, pseudovirus neutralization [14]: 0.143 µg/mL
- IC50, pseudovirus neutralization [15]: > 50 µg/mL
- IC50, pseudovirus neutralization [16]: 0.0223 µg/mL
- IC80 [17]: 0.068 µg/mL
- IC80 [18]: 0.021 µg/mL
- IC50, pseudovirus neutralization [19]: > 50 µg/mL
- IC80, pseudovirus neutralization [20]: 0.0383 µg/mL
- IC50, pseudovirus neutralization [21]: 2.04 µg/mL
- IC50, pseudovirus neutralization [22]: 0.312 µg/mL
- IC80 [23]: 0.0217 µg/mL
- IC80, pseudovirus neutralization [24]: > 50 µg/mL
- IC50, pseudovirus neutralization [25]: 0.0117 µg/mL
- IC50, pseudovirus neutralization [26]: > 50 µg/mL
- IC80, pseudovirus neutralization [27]: 0.106 µg/mL
- IC50, pseudovirus neutralization [28]: > 50 µg/mL
- IC80 [29]: 0.3 µg/mL
- IC80, pseudovirus neutralization [30]: 0.084 µg/mL
- IC80 [31]: > 50 µg/mL
- IC80 [32]: 0.0597 µg/mL
- IC80, pseudovirus neutralization [33]: > 50 µg/mL
- IC50, pseudovirus neutralization [34]: > 50 µg/mL
- IC50, pseudovirus neutralization [35]: 0.0477 µg/mL
- IC50, pseudovirus neutralization [36]: > 50 µg/mL
- IC50, pseudovirus neutralization [37]: > 50 µg/mL
- IC80 [38]: 0.0783 µg/mL
- IC80, pseudovirus neutralization [39]: 0.036 µg/mL
- IC80, pseudovirus neutralization [40]: 1.43 µg/mL
- IC80 [41]: > 50 µg/mL
- IC80 [42]: 9.02 µg/mL
- IC80 [43]: 2.5 µg/mL
- IC50, pseudovirus neutralization [44]: > 50 µg/mL
- IC80 [45]: 0.0503 µg/mL
- IC80, pseudovirus neutralization [46]: > 50 µg/mL
- IC50, pseudovirus neutralization [47]: 0.0123 µg/mL
- IC80, pseudovirus neutralization [48]: 0.0423 µg/mL
- IC50, pseudovirus neutralization [49]: > 50 µg/mL
- IC50, pseudovirus neutralization [50]: 0.0193 µg/mL
- IC80, pseudovirus neutralization [51]: 0.027 µg/mL
- IC50, pseudovirus neutralization [52]: 0.0113 µg/mL
- IC50, pseudovirus neutralization [53]: 0.0397 µg/mL
